From US20240000930A1

Tests used:
[1] = target: carboxymethyl lysine conjugated to keyhole limpet hemocyanin (CML-KLH); assay: direct binding ELISA, CML-KLH coat 1 ug/mL, antibody at 16.67 ug/mL
[2] = target: carboxymethyl lysine conjugated to keyhole limpet hemocyanin (CML-KLH); assay: direct binding ELISA, CML-KLH coat 1 ug/mL, antibody at 1.85 ug/mL
[3] = target: carboxymethyl lysine conjugated to keyhole limpet hemocyanin (CML-KLH); assay: direct binding ELISA, CML-KLH coat 1 ug/mL, antibody at 5.56 ug/mL
[4] = target: carboxymethyl lysine conjugated to keyhole limpet hemocyanin (CML-KLH); assay: direct binding ELISA, CML-KLH coat 1 ug/mL, antibody at 0.62 ug/mL
[5] = target: carboxymethyl lysine conjugated to keyhole limpet hemocyanin (CML-KLH); assay: direct binding ELISA, CML-KLH coat 1 ug/mL, antibody at 50 ug/mL
[6] = target: carboxymethyl lysine conjugated to keyhole limpet hemocyanin (CML-KLH); assay: direct binding ELISA, CML-KLH coat 1 ug/mL, antibody at 0.07 ug/mL
[7] = target: carboxymethyl lysine conjugated to keyhole limpet hemocyanin (CML-KLH); assay: direct binding ELISA, CML-KLH coat 1 ug/mL, antibody at 0.21 ug/mL

Substance: anti-carboxymethyl lysine (CML) antibody (R&D Systems, MAB3247)
- OD450 absorbance [1]: 0.312 OD450
- OD450 absorbance [2]: 0.092 OD450
- OD450 absorbance [3]: 0.165 OD450
- OD450 absorbance [4]: 0.083 OD450
- OD450 absorbance [5]: 0.462 OD450
- OD450 absorbance [6]: 0.086 OD450
- OD450 absorbance [7]: 0.075 OD450
